Numbering of substitutions follows the chain as printed.
What was measured:
[1] = target: T1, human Tumour Necrosis Factor alpha (human, UniProt P01375 77-233); assay: binding ELISA on TNFα (Anti-TNF NAR Dimers Binding ELISA, post dialysis), absorbance at 450 nm
T1 construct: Amine-coupled to the chip for BIAcore, biotinylated on streptavidin sensors for Octet, coated at 1 µg/ml for ELISA; also called hTNFα; rhTNFα

human ICOS ligand = target: T2, human ICOS ligand (human, UniProt O75144 19-258, limits assumed); assay: hICOSL neutralisation assay (lower left panel): blocking of hICOSL binding to its CHO-expressed receptor, absorbance at 450 nm
T2 construct: also called hICOSL
T2 sequence (looked up): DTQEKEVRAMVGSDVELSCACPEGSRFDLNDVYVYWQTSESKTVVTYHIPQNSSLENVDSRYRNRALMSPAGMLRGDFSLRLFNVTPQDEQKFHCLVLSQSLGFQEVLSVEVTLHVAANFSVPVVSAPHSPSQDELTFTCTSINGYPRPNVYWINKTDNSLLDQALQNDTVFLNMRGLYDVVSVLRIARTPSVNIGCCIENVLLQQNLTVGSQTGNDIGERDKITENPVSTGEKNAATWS

mouse ICOS ligand = target: T3, mouse ICOS ligand (mouse, UniProt Q9JHJ8 47-279, limits assumed); assay: mICOSL neutralisation assay (lower right panel): blocking of mICOSL binding to its CHO-expressed receptor, absorbance at 450 nm
T3 construct: it may be the same Fc chimera as m48; also called mICOSL
T3 sequence (looked up): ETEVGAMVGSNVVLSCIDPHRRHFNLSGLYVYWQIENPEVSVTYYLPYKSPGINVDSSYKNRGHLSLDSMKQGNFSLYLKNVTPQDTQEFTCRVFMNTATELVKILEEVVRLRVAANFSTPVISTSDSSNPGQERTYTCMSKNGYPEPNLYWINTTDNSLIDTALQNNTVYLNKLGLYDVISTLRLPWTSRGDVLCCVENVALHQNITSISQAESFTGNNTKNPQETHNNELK

[2] = target: T1, human Tumour Necrosis Factor alpha; assay: binding ELISA on 1 µg/ml hTNF-α, absorbance at 450 nm
human serum albumin = target: T4, human serum albumin (human, UniProt P02768 25-609); assay: binding ELISA on human serum albumin (HSA), OD 450
T4 construct: also called HSA

[3] = target: T1, human Tumour Necrosis Factor alpha; assay: binding ELISA on human TNF-alpha, OD 450
[4] = target: T1, human Tumour Necrosis Factor alpha; assay: BLI, Octet RED96, biotinylated hTNF-α on streptavidin sensors, top concentration 1 µM
[5] = target: T1, human Tumour Necrosis Factor alpha; assay: kinetics on hTNFα; instrument (BIAcore T200 or Octet) not stated for this column
Mouse TNF-alpha = target: T5, Mouse TNF-alpha (mouse, UniProt P06804 80-235); assay: cross-reactivity binding, B of B/N; - denotes no binding/neutralisation activity observed
T5 construct: also called mouse TNFα
T5 sequence (looked up): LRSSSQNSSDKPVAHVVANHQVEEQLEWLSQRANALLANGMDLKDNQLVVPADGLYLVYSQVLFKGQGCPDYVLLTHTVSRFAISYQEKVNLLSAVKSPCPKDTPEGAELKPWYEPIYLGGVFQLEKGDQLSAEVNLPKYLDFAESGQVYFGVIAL

Rat TNFα = target: T6, Rat TNFα (rat, UniProt P16599 80-235); assay: as above
T6 sequence (looked up): T5 sequence (looked up) with V22A, V58I, N91S, V96I, I117M, Q130L, F143I, A144T

Human TNF-β = target: T7, Human TNF-β (human, UniProt P01374 35-205); assay: as above
T7 construct: also called human TNFB
T7 sequence (looked up): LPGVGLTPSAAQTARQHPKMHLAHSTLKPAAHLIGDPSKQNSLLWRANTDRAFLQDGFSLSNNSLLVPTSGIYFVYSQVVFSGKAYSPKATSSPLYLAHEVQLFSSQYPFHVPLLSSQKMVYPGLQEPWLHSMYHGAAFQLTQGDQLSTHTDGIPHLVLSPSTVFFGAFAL

Pig TNFα = Pig TNFα (pig, UniProt P23563 77-232); assay: as above
Pig TNFα, sequence (P23563 77-232 limits assumed): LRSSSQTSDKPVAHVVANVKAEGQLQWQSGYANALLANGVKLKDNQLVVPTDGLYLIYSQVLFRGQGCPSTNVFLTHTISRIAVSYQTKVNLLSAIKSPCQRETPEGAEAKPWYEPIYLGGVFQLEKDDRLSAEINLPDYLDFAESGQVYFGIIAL

Rabbit TNFα = target: T8, Rabbit TNFα (rabbit, UniProt P04924 80-235, limits assumed); assay: as above
T8 sequence (looked up): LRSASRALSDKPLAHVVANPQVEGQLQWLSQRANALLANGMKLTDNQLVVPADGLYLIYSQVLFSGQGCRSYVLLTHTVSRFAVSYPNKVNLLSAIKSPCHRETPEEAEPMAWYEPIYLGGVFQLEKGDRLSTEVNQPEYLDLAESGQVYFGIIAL

T1 sequence (P01375 77-233 limits assumed): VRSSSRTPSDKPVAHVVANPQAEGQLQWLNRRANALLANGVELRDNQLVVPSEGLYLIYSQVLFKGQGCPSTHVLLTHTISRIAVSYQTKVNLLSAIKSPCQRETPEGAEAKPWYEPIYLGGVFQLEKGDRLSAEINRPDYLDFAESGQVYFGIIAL

B1: TNF VNAR DIMER D1-D1 (VNAR)
chain: ARVDQTPQTITKETGESLTINCVLRDSHCATSSTYWYRKKSGSTNEESISKGGRYVETVNSGSKSFSLRINDLTVEDSGTYRCASECQYGLAEYDVYGGGTVVTVNGGGGSGGGGGSGAHSARVDQTPQTITKETGESLTINCVLRDSHCATSSTYWYRKKSGSTNEESISKGGRYVETVNSGSKSFSLRINDLTVEDSGTYRCASECQYGLAEYDVYGGGTVVTVNAAAHHHHHHGAAESKLISEEDL
- EC50 (read off the curve) [1]: ~0.009 µg/mL

B2: VNAR-TNFR1 Fc bi-functional construct, Format 4: anti-hICOSL VNAR (2D4) (Fc fusion)
chain: TRVDQTPRTATKETGESLTINCVLTDTDYGLFSTSWFRKNPGTTDWERMSIGGRYVESVNKGAKSFSLRIKDLTVADSATYYCKAFTWPWEWPDRWFRPWYDGAGTVLTVN
- IC50 (read off the curve) (human ICOS ligand): ~0.4 µg/mL

B3: VNAR-TNFR1 Fc bi-functional construct, Format 2: anti-mICOSL VNAR (CC3) (Fc fusion)
chain: TRVDQTPRTATKETGESLTINCVLTDTEYGLFSTSWFRKNPGTTDWERMSIGGRYVESVNKGAKSFSLRIKDLTVADSATYYCKALGWWPPAFPHWYDGAGTVLTVN
- IC50 (read off the curve) (mouse ICOS ligand): ~0.2 µg/mL

B4: SoloMER™ VNAR D1-v4 (VNAR)
VNAR: ARVDQSPSSLSASVGDRVTITCVLRDSHCATSSTYWYRKKPGSTNEESISKGGRFSGSGSSGSKSFTLTISSLQPEDFATYYCASECQYGLAEYDVFGQGTKVEIKH
notes: Humanised D1 with His tag
- EC50 (read off the curve) [2]: ~0.1 µg/mL

B5: TNF S17-Quad-X™ (Fc fusion)
chain: ASVNQTPRTATKETGESLTINCVLTDTHAKVFTTSWFRKNPGTTDWERMSIGGRYVESVNKGAKSFSLRIKDLTVADSATYICRAGGYLSQPRVYWDVYGAGTVLTVNGGGGSGGGGRTEPRGPTIKPCPPCKCPAPNLLGGPSVFIFPPKIKDVLMISLSPIVTCVVVDVSEDDPDVQISWFVNNVEVHTAQTQTHREDYNSTLRVVSALPIQHQDWMSGKEFKCKVNNKDLPAPIERTISKPKGSVRAPQVYVLPPPEEEMTKKQVTLTCMVTDFMPEDIYVEWTNNGKTELNYKNTEPVLDSDGSYFMYSKLRVEKKNWVERNSYSCSVVHEGLHNHHTTKSFSRTPGKGGGGSGGGGSGGGGSGGGGSGAHSASVNQTPRTATKETGESLTINCVLTDTHAKVFTTSWFRKNPGTTDWERMSIGGRYVESVNKGAKSFSLRIKDLTVADSATYICRAGGYLSQPRVYWDVYGAGTVLTVN
notes: S17, mouse IgG2a Fc and S17 in one chain; also called S17-Fc-S17; S17-Fc-S17 (Quad-X™)
- binding result (human serum albumin): no binding (tested: 5 µg/ml)
- binding result [3]: no binding (tested: 5 µg/ml)

B6: BB10 (VNAR)
VNAR: TRVDQSPSSLSASVGDRVTITCVLTDTSYPLYSTYWYRKNPGSSNKEQISISGRYSESVNKGTKSFTLTISSLQPEDFATYYCRAMGTNFWTGDGAGTKVEIK
- Kd [4]: > 1000 nM

B7: TNF VNAR D1-BA11-B4 (VNAR)
chain: ARVDQTPQTITKETGESLTINCVLRDSHCATSSTYWYRKKSGSTNEESISKGGRYVETVNSGSKSFSLRINDLTVEDSGTYRCASECQYGLAEYDVYGGGTVVTVNGGGGSGGGGSGGGGSGGGGSGAHSTRVDQSPSSLSASVGDRVTITCVLTDTSYPLYSTYWYRKNPGSSNKEQISISGRYSESVNKGTKSFTLTISSLQPEDSATYYCRAMSTNIWTGDGAGTKVEIKGGGGSGGGGSGGGGSGGGGSGAHSARVDQTPQTITKETGESLTINCVLRDSNCALSSMYWYRKKSGSTNEESISKGGRYVETVNSGSKSFSLRINDLTVEDSGTYRCKVYIPCIDELVYMISGGTSGPIHDVYGGGTVVTVNHHHHHHHEQKLISEEDL
notes: Tandem VNAR trimer with anti-HSA BA11 in the middle, His and Myc tags
- koff [5]: ~0.0006 s⁻¹

B8: TNF VNAR D1 (VNAR)
VNAR: ARVDQTPQTITKETGESLTINCVLRDSHCATSSTYWYRKKSGSTNEESISKGGRYVETVNSGSKSFSLRINDLTVEDSGTYRCASECQYGLAEYDVYGGGTVVTVNA
notes: Nurse shark VNAR single domain; also called VNAR D1 (wt); VNAR anti-hTNFa-D1
- binding result (Mouse TNF-alpha): no binding
- binding result (Rat TNFα): no binding
- binding result (Human TNF-β): no binding
- binding result (Pig TNFα): no binding
- binding result (Rabbit TNFα): no binding

— patent publication US20250346659A1 (ELASMOGEN, published 2025)
